# Assay results: article PMC7525151, “Fumarase From Cyanidioschyzon merolae Stably Shows High Catalytic Activity for Fumarate Hydration Under High Temperature Conditions” (Frontiers in Microbiology, 2020)
# Test system: O=C(O)C[C@H](O)C(=O)O
# Experiment: purified protein
# Conditions: L-malate dehydration
# [1] = 100 mM Tris-HCl pH 8.5, 52 °C, pH 8.5
# [2] = 100 mM Tris-HCl pH 7.5, 50 °C, pH 7.5
# Sequence of TeFum (Thermosynechococcus vestitus BP-1) (chain, as listed by the source): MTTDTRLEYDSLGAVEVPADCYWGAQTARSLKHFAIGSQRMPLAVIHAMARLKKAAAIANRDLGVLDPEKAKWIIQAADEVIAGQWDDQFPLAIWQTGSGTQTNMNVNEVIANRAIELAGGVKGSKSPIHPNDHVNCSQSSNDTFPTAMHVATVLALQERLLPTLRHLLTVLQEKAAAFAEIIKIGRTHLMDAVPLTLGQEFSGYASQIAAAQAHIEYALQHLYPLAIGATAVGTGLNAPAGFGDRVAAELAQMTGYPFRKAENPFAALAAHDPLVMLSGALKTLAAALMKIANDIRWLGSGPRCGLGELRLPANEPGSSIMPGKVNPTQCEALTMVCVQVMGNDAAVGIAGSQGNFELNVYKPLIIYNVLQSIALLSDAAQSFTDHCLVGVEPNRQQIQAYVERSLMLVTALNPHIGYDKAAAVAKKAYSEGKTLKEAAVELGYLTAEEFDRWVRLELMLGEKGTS
# Sequence of CmFUM (Cyanidioschyzon merolae strain 10D) (chain, as listed by the source): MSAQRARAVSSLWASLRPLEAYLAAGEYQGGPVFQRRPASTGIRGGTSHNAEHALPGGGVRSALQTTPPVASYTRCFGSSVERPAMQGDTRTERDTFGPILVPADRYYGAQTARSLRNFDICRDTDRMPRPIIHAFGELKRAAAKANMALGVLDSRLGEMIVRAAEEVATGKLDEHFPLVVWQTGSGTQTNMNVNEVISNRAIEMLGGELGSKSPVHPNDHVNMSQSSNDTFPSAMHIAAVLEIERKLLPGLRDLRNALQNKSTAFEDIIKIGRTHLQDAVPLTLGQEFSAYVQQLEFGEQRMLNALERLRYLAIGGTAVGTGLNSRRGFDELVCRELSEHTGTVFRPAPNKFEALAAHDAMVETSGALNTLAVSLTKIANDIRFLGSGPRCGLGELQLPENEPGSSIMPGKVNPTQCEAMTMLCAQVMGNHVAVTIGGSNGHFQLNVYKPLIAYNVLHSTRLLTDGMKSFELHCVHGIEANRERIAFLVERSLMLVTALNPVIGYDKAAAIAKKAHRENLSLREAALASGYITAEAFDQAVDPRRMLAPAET
Substance,Km [1],kcat [1],kcat/Km [1],Km [2],kcat [2],kcat/Km [2]
CmFUM (Cyanidioschyzon merolae strain 10D),1490 ± 120 µM,244 s⁻¹,164000 M⁻¹ s⁻¹,,,
TeFum (Thermosynechococcus vestitus BP-1),,,,200 ± 10 µM,15 s⁻¹,76000 M⁻¹ s⁻¹
